Patent US20180028641A1 (GlaxoSmithKline, published 2018)

Biological target: T1, human transferrin hTF (Sigma T-4132) (human, UniProt P02787 20-698)
T1 construct: Bought protein
Assay: gel filtration (Superdex 200 PC 3.2/30) of each protein and of the mixture, fractions analysed by SDS-PAGE

T1 sequence (P02787 20-698 limits assumed): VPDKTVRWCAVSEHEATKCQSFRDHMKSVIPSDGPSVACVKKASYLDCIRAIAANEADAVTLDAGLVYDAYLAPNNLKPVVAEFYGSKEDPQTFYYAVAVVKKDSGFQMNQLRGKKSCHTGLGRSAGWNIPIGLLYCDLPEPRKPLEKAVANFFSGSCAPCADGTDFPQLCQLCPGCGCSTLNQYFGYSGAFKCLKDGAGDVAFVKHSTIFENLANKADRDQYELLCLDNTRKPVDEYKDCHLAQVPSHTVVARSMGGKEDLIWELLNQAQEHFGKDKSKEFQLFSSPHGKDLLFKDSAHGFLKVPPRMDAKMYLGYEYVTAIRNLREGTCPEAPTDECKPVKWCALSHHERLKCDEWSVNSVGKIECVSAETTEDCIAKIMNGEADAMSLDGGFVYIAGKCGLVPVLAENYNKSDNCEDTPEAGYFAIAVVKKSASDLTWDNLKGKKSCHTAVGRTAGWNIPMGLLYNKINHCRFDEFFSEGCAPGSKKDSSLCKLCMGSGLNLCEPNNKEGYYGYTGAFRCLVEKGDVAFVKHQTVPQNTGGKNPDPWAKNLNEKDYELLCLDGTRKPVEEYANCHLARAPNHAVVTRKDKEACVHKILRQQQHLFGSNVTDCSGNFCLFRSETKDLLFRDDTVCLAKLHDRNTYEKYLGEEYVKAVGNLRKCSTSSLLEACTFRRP

B1: recombinant NMB1870 (strain MC58, variant 1), His-tag fusion expressed in E. coli without the leader peptide (other)
chain: CSSGGGGVAADIGAGLADALTAPLDHKDKGLQSLTLDQSVRKNEKLKLAAQGAEKTYGNGDSLNTGKLKNDKVSRFDFIRQIEVDGQLITLESGEFQVYKQSHSALTAFQTEQIQDSEHSGKMVAKRQFRIGDIAGEHTSFDKLPEGGRATYRGTAFGSDDAGGKLTYTIDFAAKQGNGKIEHLKSPELNVDLAAADIKPDGKRHAVISGSVLYNQAEKGSYSLGIFGGKAQEVAGSAEVKTVNGIRHIGLAAKQ
notes: also called purified NMB1870; the recombinant protein; not shown: His-tag (pET-21b+ vector)
binding result: no binding (tested: 7 µM)
